From US20150344540A1, “NOVEL GLP-1 RECEPTOR AGONISTS WITH CHOLESTEROL EFFLUX ACTIVITY” (NOVO NORDISK A/S, priority 2012, published 2015)
Where no end group is shown, it is not given here. [ ]: non-standard residue; d: D form. Aib = CC(C)(N)C(=O)O

B1: [Aib8,Glu23,Val25,Aib36,Lys37]-des-Lys34-GLP-1-(7-37)-peptidyl-Glu-Phe-Leu amide (peptide)
peptide: H[Aib]EGTFTSDVSSYLEGEAVKEFIAWLVG[Aib]KEFL-NH2
modifications: N-terminus assumed
SMILES: CC[C@H](C)[C@H](NC(=O)[C@H](Cc1ccccc1)NC(=O)[C@H](CCC(=O)O)NC(=O)[C@H](CCCCN)NC(=O)[C@@H](NC(=O)[C@H](C)NC(=O)[C@H](CCC(=O)O)NC(=O)CNC(=O)[C@H](CCC(=O)O)NC(=O)[C@H](CC(C)C)NC(=O)[C@H](Cc1ccc(O)cc1)NC(=O)[C@H](CO)NC(=O)[C@H](CO)NC(=O)[C@@H](NC(=O)[C@H](CC(=O)O)NC(=O)[C@H](CO)NC(=O)[C@@H](NC(=O)[C@H](Cc1ccccc1)NC(=O)[C@@H](NC(=O)CNC(=O)[C@H](CCC(=O)O)NC(=O)C(C)(C)NC(=O)[C@@H](N)Cc1c[nH]cn1)[C@@H](C)O)[C@@H](C)O)C(C)C)C(C)C)C(=O)N[C@@H](C)C(=O)N[C@@H](Cc1c[nH]c2ccccc12)C(=O)N[C@@H](CC(C)C)C(=O)N[C@H](C(=O)NCC(=O)NC(C)(C)C(=O)N[C@@H](CCCCN)C(=O)N[C@@H](CCC(=O)O)C(=O)N[C@@H](Cc1ccccc1)C(=O)N[C@@H](CC(C)C)C(N)=O)C(C)C
B2: [Aib8,Glu23,Val25,Glu34,Lys35,Val36,Lys37]-GLP-1-(7-37)-peptidyl-Glu-Lys-Leu amide (peptide)
peptide: H[Aib]EGTFTSDVSSYLEGEAVKEFIAWLVEKVKEKL-NH2
modifications: N-terminus assumed
SMILES: CC[C@H](C)[C@H](NC(=O)[C@H](Cc1ccccc1)NC(=O)[C@H](CCC(=O)O)NC(=O)[C@H](CCCCN)NC(=O)[C@@H](NC(=O)[C@H](C)NC(=O)[C@H](CCC(=O)O)NC(=O)CNC(=O)[C@H](CCC(=O)O)NC(=O)[C@H](CC(C)C)NC(=O)[C@H](Cc1ccc(O)cc1)NC(=O)[C@H](CO)NC(=O)[C@H](CO)NC(=O)[C@@H](NC(=O)[C@H](CC(=O)O)NC(=O)[C@H](CO)NC(=O)[C@@H](NC(=O)[C@H](Cc1ccccc1)NC(=O)[C@@H](NC(=O)CNC(=O)[C@H](CCC(=O)O)NC(=O)C(C)(C)NC(=O)[C@@H](N)Cc1c[nH]cn1)[C@@H](C)O)[C@@H](C)O)C(C)C)C(C)C)C(=O)N[C@@H](C)C(=O)N[C@@H](Cc1c[nH]c2ccccc12)C(=O)N[C@@H](CC(C)C)C(=O)N[C@H](C(=O)N[C@@H](CCC(=O)O)C(=O)N[C@@H](CCCCN)C(=O)N[C@H](C(=O)N[C@@H](CCCCN)C(=O)N[C@@H](CCC(=O)O)C(=O)N[C@@H](CCCCN)C(=O)N[C@@H](CC(C)C)C(N)=O)C(C)C)C(C)C
B3: [Aib8,Glu23,Val25,Glu34,Lys35,Val36,Lys37]-GLP-1-(7-37)-peptidyl-Glu-Phe-Phe amide (peptide)
peptide: H[Aib]EGTFTSDVSSYLEGEAVKEFIAWLVEKVKEFF-NH2
modifications: N-terminus assumed
SMILES: CC[C@H](C)[C@H](NC(=O)[C@H](Cc1ccccc1)NC(=O)[C@H](CCC(=O)O)NC(=O)[C@H](CCCCN)NC(=O)[C@@H](NC(=O)[C@H](C)NC(=O)[C@H](CCC(=O)O)NC(=O)CNC(=O)[C@H](CCC(=O)O)NC(=O)[C@H](CC(C)C)NC(=O)[C@H](Cc1ccc(O)cc1)NC(=O)[C@H](CO)NC(=O)[C@H](CO)NC(=O)[C@@H](NC(=O)[C@H](CC(=O)O)NC(=O)[C@H](CO)NC(=O)[C@@H](NC(=O)[C@H](Cc1ccccc1)NC(=O)[C@@H](NC(=O)CNC(=O)[C@H](CCC(=O)O)NC(=O)C(C)(C)NC(=O)[C@@H](N)Cc1c[nH]cn1)[C@@H](C)O)[C@@H](C)O)C(C)C)C(C)C)C(=O)N[C@@H](C)C(=O)N[C@@H](Cc1c[nH]c2ccccc12)C(=O)N[C@@H](CC(C)C)C(=O)N[C@H](C(=O)N[C@@H](CCC(=O)O)C(=O)N[C@@H](CCCCN)C(=O)N[C@H](C(=O)N[C@@H](CCCCN)C(=O)N[C@@H](CCC(=O)O)C(=O)N[C@@H](Cc1ccccc1)C(=O)N[C@@H](Cc1ccccc1)C(N)=O)C(C)C)C(C)C
B4: [Aib8,Glu23,Val25,Glu34,Lys35,Val36,Lys37]-GLP-1-(7-37)-peptidyl-Glu-Leu-Leu amide (peptide)
peptide: H[Aib]EGTFTSDVSSYLEGEAVKEFIAWLVEKVKELL-NH2
modifications: N-terminus assumed
SMILES: CC[C@H](C)[C@H](NC(=O)[C@H](Cc1ccccc1)NC(=O)[C@H](CCC(=O)O)NC(=O)[C@H](CCCCN)NC(=O)[C@@H](NC(=O)[C@H](C)NC(=O)[C@H](CCC(=O)O)NC(=O)CNC(=O)[C@H](CCC(=O)O)NC(=O)[C@H](CC(C)C)NC(=O)[C@H](Cc1ccc(O)cc1)NC(=O)[C@H](CO)NC(=O)[C@H](CO)NC(=O)[C@@H](NC(=O)[C@H](CC(=O)O)NC(=O)[C@H](CO)NC(=O)[C@@H](NC(=O)[C@H](Cc1ccccc1)NC(=O)[C@@H](NC(=O)CNC(=O)[C@H](CCC(=O)O)NC(=O)C(C)(C)NC(=O)[C@@H](N)Cc1c[nH]cn1)[C@@H](C)O)[C@@H](C)O)C(C)C)C(C)C)C(=O)N[C@@H](C)C(=O)N[C@@H](Cc1c[nH]c2ccccc12)C(=O)N[C@@H](CC(C)C)C(=O)N[C@H](C(=O)N[C@@H](CCC(=O)O)C(=O)N[C@@H](CCCCN)C(=O)N[C@H](C(=O)N[C@@H](CCCCN)C(=O)N[C@@H](CCC(=O)O)C(=O)N[C@@H](CC(C)C)C(=O)N[C@@H](CC(C)C)C(N)=O)C(C)C)C(C)C
B5: [Aib8,Glu23,Val25,Glu34,Lys35,Val36,Lys37]-GLP-1-(7-37)-peptidyl-Glu-Val-Leu amide (peptide)
peptide: H[Aib]EGTFTSDVSSYLEGEAVKEFIAWLVEKVKEVL-NH2
modifications: N-terminus assumed
SMILES: CC[C@H](C)[C@H](NC(=O)[C@H](Cc1ccccc1)NC(=O)[C@H](CCC(=O)O)NC(=O)[C@H](CCCCN)NC(=O)[C@@H](NC(=O)[C@H](C)NC(=O)[C@H](CCC(=O)O)NC(=O)CNC(=O)[C@H](CCC(=O)O)NC(=O)[C@H](CC(C)C)NC(=O)[C@H](Cc1ccc(O)cc1)NC(=O)[C@H](CO)NC(=O)[C@H](CO)NC(=O)[C@@H](NC(=O)[C@H](CC(=O)O)NC(=O)[C@H](CO)NC(=O)[C@@H](NC(=O)[C@H](Cc1ccccc1)NC(=O)[C@@H](NC(=O)CNC(=O)[C@H](CCC(=O)O)NC(=O)C(C)(C)NC(=O)[C@@H](N)Cc1c[nH]cn1)[C@@H](C)O)[C@@H](C)O)C(C)C)C(C)C)C(=O)N[C@@H](C)C(=O)N[C@@H](Cc1c[nH]c2ccccc12)C(=O)N[C@@H](CC(C)C)C(=O)N[C@H](C(=O)N[C@@H](CCC(=O)O)C(=O)N[C@@H](CCCCN)C(=O)N[C@H](C(=O)N[C@@H](CCCCN)C(=O)N[C@@H](CCC(=O)O)C(=O)N[C@H](C(=O)N[C@@H](CC(C)C)C(N)=O)C(C)C)C(C)C)C(C)C
B6: [Aib8,Glu23,Val25,Glu34,Lys35,Val36,Lys37]-GLP-1-(7-37)-peptidyl-Glu-Gly-Leu amide (peptide)
peptide: H[Aib]EGTFTSDVSSYLEGEAVKEFIAWLVEKVKEGL-NH2
modifications: N-terminus assumed
SMILES: CC[C@H](C)[C@H](NC(=O)[C@H](Cc1ccccc1)NC(=O)[C@H](CCC(=O)O)NC(=O)[C@H](CCCCN)NC(=O)[C@@H](NC(=O)[C@H](C)NC(=O)[C@H](CCC(=O)O)NC(=O)CNC(=O)[C@H](CCC(=O)O)NC(=O)[C@H](CC(C)C)NC(=O)[C@H](Cc1ccc(O)cc1)NC(=O)[C@H](CO)NC(=O)[C@H](CO)NC(=O)[C@@H](NC(=O)[C@H](CC(=O)O)NC(=O)[C@H](CO)NC(=O)[C@@H](NC(=O)[C@H](Cc1ccccc1)NC(=O)[C@@H](NC(=O)CNC(=O)[C@H](CCC(=O)O)NC(=O)C(C)(C)NC(=O)[C@@H](N)Cc1c[nH]cn1)[C@@H](C)O)[C@@H](C)O)C(C)C)C(C)C)C(=O)N[C@@H](C)C(=O)N[C@@H](Cc1c[nH]c2ccccc12)C(=O)N[C@@H](CC(C)C)C(=O)N[C@H](C(=O)N[C@@H](CCC(=O)O)C(=O)N[C@@H](CCCCN)C(=O)N[C@H](C(=O)N[C@@H](CCCCN)C(=O)N[C@@H](CCC(=O)O)C(=O)NCC(=O)N[C@@H](CC(C)C)C(N)=O)C(C)C)C(C)C

Target: human GLP-1 receptor (human, UniProt P43220)
Assay: cell-based or functional assay

Binder | CRE luciferase EC50, 0% HSA [nM] | CRE luciferase EC50, 1% HSA [nM]
HAEGTFTSDVSSYLEGEAVKEFIAWLVEKVKEFLEK [[Glu23,Val25,Glu34,Lys35,Val36,Lys37]-GLP-1-(7-37)-peptidyl-Glu-Phe-Leu-Glu-Lys] | 0.098 | 0.031
HAEGTFTSDVSSYLEGQAAKEFIAWLVEKVKEFLEK [[Glu34,Lys35,Val36,Lys37]-GLP-1-(7-37)-peptidyl-Glu-Phe-Leu-Glu-Lys] | 0.03 | 0.011
HAEGTFTSDVSSYLEGQAAKEFIAWLVEKVKEFLDK [[Glu34,Lys35,Val36,Lys37]-GLP-1-(7-37)-peptidyl-Glu-Phe-Leu-Asp-Lys] | 0.045 | 0.012
HAEGTFTSDVSSYLEGQAAKEFIAWLVEGVKEFLEK [[Glu34,Val36,Lys37]-GLP-1-(7-37)-peptidyl-Glu-Phe-Leu-Glu-Lys] | 0.085 | 0.023
HAEGTFTSDVSSYLEGQAAKEFIAWLVEKVKEFLER [[Glu34,Lys35,Val36,Lys37]-GLP-1-(7-37)-peptidyl-Glu-Phe-Leu-Glu-Arg] | 0.034 | 0.011
B1 | 0.01 | 0.004
B2 | 0.059 | 0.029
HAEGTFTSDVSSYLEGQAAKEFIAWLVEKVKEF-NH2 [[Glu34,Lys35,Val36,Lys37]-GLP-1-(7-37)-peptidyl-Glu-Phe amide] | 0.016 | 0.005
HGEGTFTSDVSSYLEEEAVKEFIAWLVEKVKEF-NH2 [[Gly8,Glu22,Glu23,Val25,Glu34,Lys35,Val36,Lys37]-GLP-1-(7-37)-peptidyl-Glu-Phe amide] | 0.104 | 0.027
B3 | 0.525 | 0.372
HAEGTFTSDVSSYLEEEAVKEFIAWLVEKVKEFL-NH2 [[Glu22,Glu23,Val25,Glu34,Lys35,Val36,Lys37]-GLP-1-(7-37)-peptidyl-Glu-Phe-Leu amide] | 0.299 | 0.114
B4 | 0.489 | 0.303
H-HAEGTFTSDVSSYLEGQAAKEFIAWLVEKVGEFLEK [[Glu34,Lys35,Val36]-GLP-1-(7-37)-peptidyl-Glu-Phe-Leu-Glu-Lys] | 0.041 | 0.013
H[Aib]EGTFTSDVSSYLEEEAVKEFIAWLVEKVKEF-NH2 [[Aib8,Glu22,Glu23,Val25,Glu34,Lys35,Val36,Lys37]-GLP-1-(7-37)-peptidyl-Glu-Phe amide] | 0.029 | 0.012
HAEGTFTSDVSSYLEGQAAKEFIAWLVEKVKEFY-NH2 [[Glu34,Lys35,Val36,Lys37]-GLP-1-(7-37)-peptidyl-Glu-Phe-Tyr amide] | 0.037 | 0.014
B5 | 0.198 | 0.065
HGEGTFTSDVSSYLEEEAVKEFIAWLVEKVKEFL-NH2 [[Gly8,Glu22,Glu23,Val25,Glu34,Lys35,Val36,Lys37]-GLP-1-(7-37)-peptidyl-Glu-Phe-Leu amide] | 0.974 | 0.302
HAEGTFTSDVSSYLEEEAVKEFIAWLVEKVKEF-NH2 [[Glu22,Glu23,Val25,Glu34,Lys35,Val36,Lys37]-GLP-1-(7-37)-peptidyl-Glu-Phe amide] | 0.02 | 0.01
B6 | 0.011 | 0.003
